Measured values published in paper PMC8563757, “NudCL2 is an autophagy receptor that mediates selective autophagic degradation of CP110 at mother centrioles to promote ciliogenesis” (Cell Research, 2021).

Molecular target: T1, His-CP110 (mouse, UniProt Q7TSH4 1-1004)
T1 construct: Full-length mouse CP110 cloned by RT-PCR into pFastBac-HT A (His-tag vector); also called purified His-CP110; source: insect Sf9 cells, Bac-to-Bac baculovirus expression system, purified
T1 sequence (looked up): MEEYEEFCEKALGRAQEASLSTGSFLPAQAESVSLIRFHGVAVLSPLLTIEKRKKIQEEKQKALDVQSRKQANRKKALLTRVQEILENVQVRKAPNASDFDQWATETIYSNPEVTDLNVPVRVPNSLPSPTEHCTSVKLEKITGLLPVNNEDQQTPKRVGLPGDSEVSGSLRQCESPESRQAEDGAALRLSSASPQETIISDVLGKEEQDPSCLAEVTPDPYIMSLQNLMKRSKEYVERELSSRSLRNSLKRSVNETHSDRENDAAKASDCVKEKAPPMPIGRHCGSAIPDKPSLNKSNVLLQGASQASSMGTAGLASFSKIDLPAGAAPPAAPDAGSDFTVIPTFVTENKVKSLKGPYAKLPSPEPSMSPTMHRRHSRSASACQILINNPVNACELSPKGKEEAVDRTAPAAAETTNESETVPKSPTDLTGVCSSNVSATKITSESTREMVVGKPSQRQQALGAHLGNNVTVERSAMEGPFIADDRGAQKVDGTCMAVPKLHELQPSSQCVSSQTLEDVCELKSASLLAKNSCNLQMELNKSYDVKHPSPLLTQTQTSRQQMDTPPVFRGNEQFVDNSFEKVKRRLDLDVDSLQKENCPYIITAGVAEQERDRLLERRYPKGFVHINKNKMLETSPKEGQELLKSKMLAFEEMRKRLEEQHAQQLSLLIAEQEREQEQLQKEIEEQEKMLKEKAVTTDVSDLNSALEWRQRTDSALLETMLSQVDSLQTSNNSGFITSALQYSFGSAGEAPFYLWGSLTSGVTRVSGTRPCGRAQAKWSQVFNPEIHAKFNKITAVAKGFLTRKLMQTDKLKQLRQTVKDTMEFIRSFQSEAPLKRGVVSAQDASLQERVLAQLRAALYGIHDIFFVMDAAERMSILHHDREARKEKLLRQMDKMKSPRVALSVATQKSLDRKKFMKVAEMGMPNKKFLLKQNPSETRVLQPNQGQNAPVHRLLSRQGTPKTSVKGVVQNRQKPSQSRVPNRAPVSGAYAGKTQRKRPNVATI
Test: pull-down; GST pull-down of two purified proteins, incubated in PBS at 4 °C for 4 h, glutathione-agarose beads 2 h, western blotting
Details: both partners purified

binding result: binds
B1: GST-NudCL2 (natural protein, mouse, UniProt Q9CQ48 1-157, looked up)
chain: MSAPFEERSGVVPCGTPWGQWYQTLEEVFIEVQVPPGTRAQDIQCGLQSRHVALAVGGREILKGKLFDSTIADEGTWTLEDRKMVRIVLTKTKRDAANCWTSLLESEYAADPWVQDQMQRKLTLERFQKENPGFDFSGAEISGNYTKGGPDFSNLEK
notes: Full-length mouse NudCL2 amplified from total cDNA by RT-PCR and cloned into pGEX5X-1; also called purified GST-NudCL2; source: Escherichia coli BL21, purified
